Laboratory results taken from US20110171178A1 (CUREDM GROUP, published 2011).

T1: HIP receptor (EXTL3) (human, UniProt O43909 1-919)
T1 construct: whole, on cells; Endogenous protein of PANC-1 cells, seen by immunostaining and Western blot; also called receptor for Human ProIslet Peptide
T1 sequence (looked up): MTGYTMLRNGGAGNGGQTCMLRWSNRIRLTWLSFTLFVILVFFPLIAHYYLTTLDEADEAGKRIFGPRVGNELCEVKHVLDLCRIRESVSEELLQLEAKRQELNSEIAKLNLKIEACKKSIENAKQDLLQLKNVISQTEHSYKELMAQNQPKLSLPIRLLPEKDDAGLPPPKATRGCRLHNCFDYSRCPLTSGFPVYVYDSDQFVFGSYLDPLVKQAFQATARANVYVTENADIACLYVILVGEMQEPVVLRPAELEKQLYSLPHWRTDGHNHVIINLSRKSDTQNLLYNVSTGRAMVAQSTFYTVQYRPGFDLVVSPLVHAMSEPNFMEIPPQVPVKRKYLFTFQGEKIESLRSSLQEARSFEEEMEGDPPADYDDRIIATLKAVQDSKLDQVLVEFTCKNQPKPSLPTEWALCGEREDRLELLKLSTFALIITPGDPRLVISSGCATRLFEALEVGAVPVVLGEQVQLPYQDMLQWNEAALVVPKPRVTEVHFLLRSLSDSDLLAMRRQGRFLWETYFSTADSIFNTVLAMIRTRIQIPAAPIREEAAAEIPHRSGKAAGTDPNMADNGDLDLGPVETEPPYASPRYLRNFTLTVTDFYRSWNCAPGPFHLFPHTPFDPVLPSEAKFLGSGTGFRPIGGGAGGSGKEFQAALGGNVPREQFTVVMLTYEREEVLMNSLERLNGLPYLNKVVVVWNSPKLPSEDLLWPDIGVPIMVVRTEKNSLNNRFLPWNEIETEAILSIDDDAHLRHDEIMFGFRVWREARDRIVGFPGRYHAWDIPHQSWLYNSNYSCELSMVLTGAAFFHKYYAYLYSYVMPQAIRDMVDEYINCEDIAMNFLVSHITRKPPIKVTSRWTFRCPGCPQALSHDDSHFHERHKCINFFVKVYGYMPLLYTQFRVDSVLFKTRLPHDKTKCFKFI


Molecular target: T1, HIP receptor (EXTL3)
Test: receptor immunostaining and trafficking in PANC-1 cells (indirect)
Experimental: The upper panels indicated by the Cy3 immunofluorescent staining of EXTL3 (red). In the lower panel of images the Cy3 immunostaining of EXTL3 has been overlaid with DAPI (blue) staining of the nuclei. Cells were grown in standard growth medium as a control and compared to cells grown serum-free medium (SFM) in the presence or absence of HIP. […] The cell borders are well-defined indicating surface expression of EXTL3 on the plasma membrane. The yellow arrows delineate the cell borders while the nuclei are shown in blue. The middle images are cells grown in SFM. EXTL3 is localized in the cytoplasm as indicated by cytoplasmic Cy3 staining. The green arrows show the lack of staining in the position of the nuclei. […] In the lower image of cells grown in SFM and HIP, the blue arrows indicate the position of the nuclei. In the lower image there is an overlap of EXTL3-Cy3 staining and nuclear DAPI staining that corroborates the nuclear localization of EXTL3 (blue arrows). Scale bar=20 μm in all images.

Row | Binder | binding result
1 | Ac-IGLHDPTQGTEPNG-NH2 (also called Optimized HIP2B) [HIP2Blocked (Ac-Ile-Gly-Leu-His-Asp-Pro-Thr-Gln-Gly-Thr-Glu-Pro-Asn-Gly-NH2)] | binds
2 | IGLHDPTQGTEPNG [HIP2 (Human proIslet Peptide, Ile-Gly-Leu-His-Asp-Pro-Thr-Gln-Gly-Thr-Glu-Pro-Asn-Gly)] | binds
